According to publication PMC8024706 (iScience, 2021):

Molecular target: the molecule itself
Experiment: high-speed atomic force microscopy

B1: PDI I289A (enzyme)
chain: not shown
stoichiometry N: 2
